Measurements as given in the DeepSol protein solubility set.

assay: soluble on expression in E. coli; label from the status in PepcDB or PDB records

Soluble on expression in E. coli, soluble:
MAHHHHHHMRRTIRVFTGKLLWEDFTNTRLITINREKALNSMDLEMVKAMQRAYVHEPHAKGDSALFVVKGAGNKSFCAGGDIVSLKDRYDVAAEFFYTEYQMNYHILTMPNPQVSLWDGYVMGGGVGVSVHGRYRVASERAVFAMPETAIGLFPDVGASWFLPRLKMKGLGLYLGLTGARLKGADVAHTGLATHYVPSARFCELEERLCHIDDPAKVEACLEEFAVRDLPPFTLEPHRETIEKSFALEEKTTVEGIYESLSADGGEFAKGTINTLNRMAPTSLRVSLEMQKRGVKMTDPADVFRMDYIGSLRTHANSDFHEGVRALLVDKTKDPKWKPAKLSDVTADYVEAYFKPMGNQARQWHPTVPY
MSLKIKVYLYTRVSTSIQIEGYSLEAQKSRMKAFAIYNDYEIVGEYEDAGKSGKSIEGRIQFNRMMEDIKSGKDGVSFVLVFKLSRFARNAADVLSTLHIMQDYGVNLICVEDGIDSSKDAGKLMISVLSAVAEIERENIRIQTMEGRIQKAREGKWNGGFAPYGYKLEDGKLFINEEEAVAIRTIFDQYVNTTIGANGISKYLENHGIRKIPRQNGKNPLFDAGLIRKILKNPVYNGKIAFGRRTLEKVHGTRNEYKQVEQDEYLISEGIHEAIVSDEVWQAAQVKLKSQAKKYEHVNKGKDTRTHLLSGIVKCPICGVGMFGNKCIKKKKDGTKYKDFYYYGCNHRQMIRGHKCTFSKQIREELLDDAVAEVIVKIVSNPKFASMMQEKINMKVDTSEIEKEIDNYQKELRKSHSTKFKLIEEIDNLDVEDKHYKRRKQDLDDRLYRMYDKIDELESSLIDAKAKKQTIEAEKLTGDNIYKVLIYFDKLYKVMNDVERRQLISALISEIQVYEEKQSNGQWLKSITFKLPIIEENLNIDLDNDEQVECVSLLEKRSEGHHHHHH
MSLSVKRVLRNTIRKEKEENRVTEPLTETPELSAKYAWFFDLDGTLAEIKPHPDQVVVPDTILQGLQLLATASDGALALISGRSMVELDALAKPYRFPLAGVHGAERRDINGKTHIVHLPDAIARDISVQLHTVIAQYPGAELEAKGMAFALHYRQAPQHEDALMTLAQRITQIWPQMALQQGKCVVEIKPKGTSKGEAIAAFMQEAPFIGRTPVFLGDDLTDESGFAVVNRLGGMSVKIGTGATQASWRLAGVPDVWSWLEMITTALQQKRENNRSDDYESFSRSIEGHHHHHH
MYEEFRDVITFQSYVEQSNGEGGKTYKWVDEFTAAAHVQPISQEEYYKAQQLQTPIGYNIYTPYDDRIDKKMRVIYRGKIVTFIGDPVDLSGLQEITRIKGKEDGAYVG
MVRGFYLRFGEGVSEEANRRALALAEALLRAPPPGLLDAVPAYGVLYLEYDPRRLSRGRLLRLLKGLPQERAEEGRVVEIPVRYDGEDLPEVASRLGLSLEAVKALHQKPLYRVYALGFTPGFPFLAEVEPALRLPRKPHPRPRVPAHAVAVAGVQTGIYPLPSPGGWNLLGTSLVAVYDPHRETPFLLRPGDRVRFLEAEGPTPPEPRPLELLPEEPRLPALLVEEPGLMDLVVDGGRFLGGHLGLARSGPLDAPSARLANRLVGNGAGAPLLEFAYKGPVLTALRDLVAAFAGYGFVALLEGEEIPPGQSFLWPRGKTLRFRPRGPGVRGYLAVAGGLEVRPFLGSASPDLRGRIGRPLWAGDVLGLEALRPVRPGRAFPQRPLPEAFRLRLLPGPQFAGEAFRALCSGPFRVARADRVGVELLGPEVPGGEGLSEPTPLGGVQVPPSGRPLVLLADKGSLGGYAKPALVDPRDLWLLGQARPGVEIHFTSG
MTAIPASARIVLDTEIPARVPWSAIIRKGQTLRIVDSHGQQAVDTLFYAADDHGERYSGQDTLRAQGSAYVTTGTRIMSTEGRTMLRMVADSCGLHDTSAGACSCESNTVRFGHQTKYLHACRENFVLEAAKHGLSKRDIVPNLNFFMNVPLDPDGNFTVVDGVSKPGDYVEMVAEMDVLCLISNCPQVNNPCNGFFPTPIQVVIYEAGEDLEHHHHHH
MSLSYGVKLHVWGERALFTRPEMKVERVSYDIITPSAARGILEAIHWKPAIRWMVDSIQVLKPIRFESIRRNEVGGKLSAASVSKAIKAGRTDTLVSYVEEDRQQRAATLLRDVGYVIAAHFELTDKAGADDNVGKHLDIFNRRARRGQCFQAPCLGTREFPASFALIEDDAAMPAADATLAGERDLGWMLHDIDFADGMTPRFFRARMVDGQVEVPAPENGGVRAEGHHHHHH
MSLTLGIAFVGSGFSAKFHLRGLVGVRNVEVKGVYSRNLNSSKEFAMLSEQLGLGKPKVYSDISKMLSDKEINAVWLTVPNDVHLEYTKLIAEEVSQGRSNIHGITIEKPLARNVKEAKEMIRLVEKAGLLHGYLENQIFMPSVVRAREAIWEIGSRNSGRPYLARAAEEHSGPHNSWFWRPTISGGGALIDMTCHSLEATRFLLTDPAKTKSSLKPKTVYAETKTLKWNKKEYAQYLKEKYNVDFLKEPAEDYALTIVTYEDDLGNSVLAETRTSWNYVGPGLRLSVEVLGPEYSVNINTLQSELSVFFSRNIKLPQSEAFVEKQNADQGLMPIILDEAVVYGYQGEDRHMVESFISRKMPFENWYDGLLIVQLMMHAYLSAENGRKISFDPQKVEDFIPKVARGLYSAEGHHHHHH

Soluble on expression in E. coli, not soluble:
MGSDKIHHHHHHMLTGVEVRHFKSWRASEWIACAPITMFFGSNSSGKTSLLQLLLLLKQTTESSDRQQVLNLGDTHSPVDAGTFPDLLHRHEQTQSLFWRIAWQLPPDLTIALPGRKNGDHLPARELAFQARIGWHQHSDSTPNLQAQASHGRAVVEEMAYQLAGYTLGMRLRDRVKQEYELYSDPAGLFSRPSRKSPRLPSPVKCYGFPDEVQKYYKHVSFLTDLEFALEQLCRRMTYLGPLREYPRRQYTWSGTPPTGVGYRGERVIEALLASRLSSDVASGTDSDQPSALETRVAEWLKTMELIADFAVRAVAPGASLFQVWVRRAQQAPEVLMTDVGFGISQMLPVITLCYYVPKGSIVILEHPEIHLHPRAQADLADVLIDAVKTRGVQIIVESHSEHLLRRLQRRIAEDVLPSDQAALYVCTTDAEGVSHIQRLHLDPYGNITNWPKDFFGDEMGDLLAMSEAAMKRQLGQV
MVADVKSPAGLAAFNTTLAEQAFATGFVLSGEDAQLFAALGSAPNASTYPNVARWYANVASYTDAERKTWASAGGSAPAAAAADGDDFDLFGSDDEEEDAEKAKIVEERLAAYAEKKAKKAGPIAKSSVILDVKPWDDETDLGEMEKLVRSIEMDGLVWGGAKLIPIGYGIKKLQIITVIEDLKVSVDDLIEKITGDFEDHVQSVDIVAFNKI
MVQEIEQWLRRHQVFTEPAYLGETAILLGQQFILSPYLVIYRIEAKEMIICEFRRLTPGQPRPQQLFHLLGLLRGIFVHHPQLTCLKMLIITDVLDEKKAMLRRKLLRILTVMGATFTQLDGDNWTVLSAEHLIQRRF
MGEIQTLNEQHSVGKPVIRLSGISKSFDGKEIIGNLNLDVNHGEFLTILGPSGCGKTTVLRMIAGFETADQGQILLDDQDVTQVPAEQRHVNTVFQSYALFPHMTVFENVAFGLRMQKVPQSEIEPRVMEALRMVRLAEMAQRKPHQLSGGQQQRIAIARAVVNKPKVLLLDESLSALDYKLRKQMQSELKQLQRQLGITFIFVTHDQEEALSMSDRIIVMRSGKIEQDGSPREIYEDPKNLFVARFIGEINVFQATTIDRIDEKRIRVDIEGIESIVYYEDEVKAGDKLQVLLRPEDLRIEEIKESEEKGIVGHVTDRTYKGMTLESVVELESGMCVMVSEFFNEDDPDVDHSIGQKVAVTWVESWEVVLNDEQKA
MGSDKIHHHHHHDDSVFTVMDDPSAAKKPFEGVVNAGYLAQSGNTKSSSMTADSTLTWYGNTTAWSLWGNASNTSSNDERSSEKYAVGGRSRYNLTDMNYVFGQGSWLTDRYNGYQQRDVVTAGYGRQILNGPVHSLRFEFGPGVRYDEYTDGDTDTQPLGYASGTWAWQMTDNAKFSQGVSVFGAEDTTVNSESALNVAINAHFALKVAYNVTWNSEPPASAPEHTDRRTSLSLGYKM
MASSSLIMGNNMHVKYLAGIVGAALLMAGCSSSNELSAAGQSVRIVDEQPGAECQLIGTATGKQSNWLSGQHGEEGGSMRGAANDLRNQAAAMGGNVIYGISSPSQGMLSSFVPTDSQIIGQVYKCPNLEHHHHHH
MGSDKIHHHHHHVLAPSSADTLQGLPYEVVSYRKTYESGYRSDWHSHPRHQIIYSVSGLMMTDTEGVRWAVPSGFGLIVPAGIAHTTKMIGDVSIETLYVSPSSRGRSAFESCRVVSISAMLASLISELCREELRDRNSRKAFHLRQLIFLELSDAPTSHLAVKYPVDPQLRRVCDALIADPANSWTIDQWAFEIGKSRRSFTRAFYSQTDQTFRQWTQRLRCQLALQKRAEGQSLERIARDLGYGSRYSLEAMMQKLIMVEEIN
MPPGKKGQASSLGQNKVHFHKYNLILLPPDTISSHSSEERGLLWKHRLSQARTSYSSHVRILVRIRKMWEKTPHMRIGNIFFKKREL
MKMKHMKPYTTMKTVLSTLAIALAFGPLHNAQACTRILYETGNQSYISGRSMDWADPSAATALWVFPKGMKRDGTVGDNPIKWSAKYGSIIVSFYDAGTADGMNEKGLVANMLYLKEAKWGDATKAGKPTLTAGAWAQYFLDNYATVEEAVTAMANPPFTIIAPSLPNGDAAALHLSISDVNGDSAIFEYIDGKLVIHHGSQYKVMTNSPTFDQQLALNTYWQQIGGSKFLPGTINAADRFVRASYALSASPKYRDNDLALASVFSQIRAVSVPLGITDPDRPNLAMTLWRTFADHTAKIYYFESAVFPAVSWLDMSKVDLTEGAAPKVVRVERGQPLAGELSAALKPAEPFKWLGAE
MIEKVLVVVIIGVVGAYAQGSCRTDQHEMTCRGKNSLHDLKKDQDYLEVDTLNVHQAKLDLTDDLVPDGINLSHLTLLNATDNQITRIGRRGFDKIRNMQFLYLSINQISHSQPDPFQALEKLKRLEMNDALDGNMEEKSDMLRNFFHSKNSFVHLAQIELNKNKIEGIYPKTFCGIQGLQRLELSNNRIPSFDFARTCLKELKALMLAGNLIQKIPADIWDFLPSLSSLDISNNPIDCDCATIRLLSGDDVVFLNQADTKCASPPELEGKRIFELSRDYCKTTRNPRGKASFFQFLVLFVIAVGSEFLF
MAHHHHHHSLMLVVRPISMADYEALHTCAVESGHGFTSLPVDQELLTNRITHSEYSFSKPNVTMPGDEGYLMVGVDTETGQVAGTTGIEASIGWDVPFYSYHISTIVHSSPKLGVNNVVKLLTFGNNYTGCSEICTLFLRPQYRQGLNGRLMSKCRFLMMAEHSHRFSKTIFAEMRGVSDADGNSPFWKWLQEHFFSIDFTLADYLTGIGKKGFIADLMPKLPIYVNLLSKEAQAVIGQVHENTRPALVLLEKEGFTCRNYVDIFDAGPTVECELNNIESVRHSVRAIVEVAEHSSSQNFIMCNTSFENFRATAAKAAYSQEDNAVIISPKVAAALEVSTGDYLRILAQEG
MKKWWLAAVVAMIAVGGCAKEETEQKQSLQGANLLRTQTSGTAKHAELNQGPAERAASYLRGRDDVRDVVAVNSEDRLLIAYQIPHMKRWSRKQIEKDIDQKLRDLFPGYDVVSSSDLKIFWKTKELKANMDNRRWDERKVNREIRRIEKLSKEQT
MRKLKYQRDFFPLLHLNYGSNWRCGMDRIAYFKSLLEKNPDNPMVHYSLGLEYFKVKDYENAIKHLERYLELQEDEGAAYRTLAKCYEELGEFQKAIEVLEEGIRQAMKYNHPSMAQEYQQWIEELKGMAFLEHHHHHH
